Target: c8-ring of the Fo domain (bovine (endogenous in bovine heart mitochondria)), P32876
Experiment: cryo-EM structure
Conditions: remark: other sources report otherwise

B1: c8-ring of the Fo domain, P32876 62-136 (natural protein)
chain: DIDTAAKFIGAGAATVGVAGSGAGIGTVFGSLIIGYARNPSLKQQLFSYAILGFALSEAMGLFCLMVAFLILFAM
stoichiometry N: 8
